Source: patent US20230183336A1 (MODMAB THERAPEUTICS, published 2023)

Target: T1, recombinant human LRP6-Fc chimera (human, UniProt O75581 20-1370)
T1 construct: extracellular domain; also called ECD of human LRP6; not shown: Fc part of the chimera
T1 sequence (looked up): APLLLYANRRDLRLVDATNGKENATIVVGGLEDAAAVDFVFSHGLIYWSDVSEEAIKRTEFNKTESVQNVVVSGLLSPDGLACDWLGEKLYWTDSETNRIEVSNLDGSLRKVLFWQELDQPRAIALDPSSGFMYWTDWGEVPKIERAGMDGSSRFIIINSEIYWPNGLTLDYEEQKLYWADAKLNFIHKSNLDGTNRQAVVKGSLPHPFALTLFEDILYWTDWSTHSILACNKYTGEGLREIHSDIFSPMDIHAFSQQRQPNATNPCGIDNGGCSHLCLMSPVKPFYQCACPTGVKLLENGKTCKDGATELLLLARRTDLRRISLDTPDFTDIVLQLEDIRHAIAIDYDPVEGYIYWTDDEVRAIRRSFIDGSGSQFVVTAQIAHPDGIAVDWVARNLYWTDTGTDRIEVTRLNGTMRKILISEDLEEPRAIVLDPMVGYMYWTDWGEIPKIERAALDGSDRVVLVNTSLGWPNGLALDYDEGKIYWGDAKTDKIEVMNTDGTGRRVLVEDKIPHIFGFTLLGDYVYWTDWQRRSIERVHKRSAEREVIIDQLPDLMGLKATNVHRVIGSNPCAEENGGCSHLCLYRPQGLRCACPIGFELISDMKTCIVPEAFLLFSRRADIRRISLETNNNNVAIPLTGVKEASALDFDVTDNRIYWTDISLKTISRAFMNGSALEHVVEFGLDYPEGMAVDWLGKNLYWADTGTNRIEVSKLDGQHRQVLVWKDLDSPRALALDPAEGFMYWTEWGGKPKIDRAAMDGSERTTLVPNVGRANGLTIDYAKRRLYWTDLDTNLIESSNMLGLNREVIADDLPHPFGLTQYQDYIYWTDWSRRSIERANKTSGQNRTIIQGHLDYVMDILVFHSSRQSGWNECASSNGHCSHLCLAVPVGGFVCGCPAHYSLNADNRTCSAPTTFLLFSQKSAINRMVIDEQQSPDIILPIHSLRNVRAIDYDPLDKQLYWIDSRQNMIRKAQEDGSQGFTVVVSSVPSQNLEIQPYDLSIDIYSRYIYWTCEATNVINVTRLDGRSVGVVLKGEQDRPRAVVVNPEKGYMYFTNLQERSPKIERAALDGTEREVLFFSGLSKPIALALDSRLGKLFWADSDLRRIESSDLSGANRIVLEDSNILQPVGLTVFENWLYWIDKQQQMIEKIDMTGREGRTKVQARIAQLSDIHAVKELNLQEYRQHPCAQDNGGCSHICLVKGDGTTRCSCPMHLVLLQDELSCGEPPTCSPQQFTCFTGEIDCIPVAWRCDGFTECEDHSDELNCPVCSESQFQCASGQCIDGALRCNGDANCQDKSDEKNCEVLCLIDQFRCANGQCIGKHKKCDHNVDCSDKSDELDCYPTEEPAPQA
Experiment: multipoint competitive ELISA, IgG1; varied competitor printed as recombinant human LRP6-Fc chimera, while paragraph 283 says 'the recombinant antigen'
Description: The full length IgG1s and the antibody fragments (Fabs) were purified and a single-point ELISA was done to determine the specificity of the antibodies. […] A multipoint competitive ELISA was used to determine the relative affinities of the antibodies to the recombinant antigen.
Table 3 reports the IC50 of LRP5 antibodies as determined by competitive ELISA. The log of the recombinant human LRP6-Fc chimera concentration (x-axis) was plotted against the OD450 reading of the antibody (y-axis). The IC50 was determined by non-linear regression analysis.

B1: LRP5-H5 (antibody, V domains shown)
VH: EVQLVESGGGLVQPGGSLRLSCAASGFNLSYSSIHWVRQAPGKGLEWVASISSSYGSTSYADSVKGRFTISADTSKNTAYLQMNSLRAEDTAVYYCARGYWAIDYWGQGTLVTVSS
VL: DIQMTQSPSSLSASVGDRVTITCRASQSVSSAVAWYQQKPGKAPKLLIYSASSLYSGVPSRFSGSRSGTDFTLTISSLQPEDFATYYCQQPVGHYGYPITFGQGTKVEIKR
notes: Fab-phage in the screen
IC50: 4.44 nM
